Measurements taken from patent US20200297818A1 (ZEALAND PHARMA A S, published 2020).
*1 amine or outer side, *2 acyl side, *3 side chain or, on linkers, in order; H or OH if unused. Side-chain parts run from the residue outwards. [ ]: non-standard residue; d: D form. The star is where a group is joined. C20 diacid = O=C(O)CCCCCCCCCCCCCCCCCCC(=O)*; γGlu = O=C(O)[C@H](CCC(=O)[*:2])N[*:1]; AEEA = NCCOCCOCC(=O)O; Aib = CC(C)(N)C(=O)O

T1: human GLP-2 receptor (hGLP2-R) (human, UniProt O95838 1-553)
T1 sequence (looked up): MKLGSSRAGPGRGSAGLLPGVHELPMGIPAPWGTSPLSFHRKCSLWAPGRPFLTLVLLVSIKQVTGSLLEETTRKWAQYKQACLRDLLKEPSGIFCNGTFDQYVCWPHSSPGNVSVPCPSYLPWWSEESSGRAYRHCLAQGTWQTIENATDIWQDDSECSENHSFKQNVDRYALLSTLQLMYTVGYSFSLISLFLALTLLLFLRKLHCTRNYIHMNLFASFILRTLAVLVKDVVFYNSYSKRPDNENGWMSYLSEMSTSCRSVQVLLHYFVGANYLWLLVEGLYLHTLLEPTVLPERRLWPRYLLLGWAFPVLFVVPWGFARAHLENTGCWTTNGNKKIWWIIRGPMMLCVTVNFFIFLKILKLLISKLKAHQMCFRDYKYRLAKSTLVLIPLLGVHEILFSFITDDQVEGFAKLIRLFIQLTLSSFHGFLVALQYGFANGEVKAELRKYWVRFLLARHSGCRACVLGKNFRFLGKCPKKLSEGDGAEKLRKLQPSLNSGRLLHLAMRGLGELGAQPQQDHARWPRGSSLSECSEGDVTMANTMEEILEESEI


Assays:
[1] = target: T1, human GLP-2 receptor (hGLP2-R); assay: cell-based or functional assay
[2] = target: human glucagon-like peptide 1 receptor (GLP-1 R) (human, UniProt P43220 24-463); assay: cell-based or functional assay

Binder | EC50 GLP-2 (nM); cAMP response [1] [nM] | EC50 GLP-1 (nM); cAMP response [2] [nM]
H-H[Aib]EGSFTSEK([AEEA-AEEA-γGlu-C20 diacid])ATILDEQAARDFIAWLIEHKITD-OH (SMILES CC[C@H](C)[C@H](NC(=O)[C@H](Cc1ccccc1)NC(=O)[C@H](CC(=O)O)NC(=O)[C@H](CCCNC(=N)N)NC(=O)[C@H](C)NC(=O)[C@H](C)NC(=O)[C@H](CCC(N)=O)NC(=O)[C@H](CCC(=O)O)NC(=O)[C@H](CC(=O)O)NC(=O)[C@H](CC(C)C)NC(=O)[C@@H](NC(=O)[C@@H](NC(=O)[C@H](C)NC(=O)[C@H](CCCCNC(=O)COCCOCCNC(=O)COCCOCCNC(=O)CC[C@H](NC(=O)CCCCCCCCCCCCCCCCCCC(=O)O)C(=O)O)NC(=O)[C@H](CCC(=O)O)NC(=O)[C@H](CO)NC(=O)[C@@H](NC(=O)[C@H](Cc1ccccc1)NC(=O)[C@H](CO)NC(=O)CNC(=O)[C@H](CCC(=O)O)NC(=O)C(C)(C)NC(=O)[C@@H](N)Cc1c[nH]cn1)[C@@H](C)O)[C@@H](C)O)[C@@H](C)CC)C(=O)N[C@@H](C)C(=O)N[C@@H](Cc1c[nH]c2ccccc12)C(=O)N[C@@H](CC(C)C)C(=O)N[C@H](C(=O)N[C@@H](CCC(=O)O)C(=O)N[C@@H](Cc1c[nH]cn1)C(=O)N[C@@H](CCCCN)C(=O)N[C@H](C(=O)N[C@H](C(=O)N[C@@H](CC(=O)O)C(=O)O)[C@@H](C)O)[C@@H](C)CC)[C@@H](C)CC) [Compound 42] | 0.33 | 0.067
H-H[Aib]EGSFTSELATILDK([AEEA-AEEA-γGlu-C20 diacid])KAARDFIAWLIEHKITD-OH (SMILES CC[C@H](C)[C@H](NC(=O)[C@H](Cc1ccccc1)NC(=O)[C@H](CC(=O)O)NC(=O)[C@H](CCCNC(=N)N)NC(=O)[C@H](C)NC(=O)[C@H](C)NC(=O)[C@H](CCCCN)NC(=O)[C@H](CCCCNC(=O)COCCOCCNC(=O)COCCOCCNC(=O)CC[C@H](NC(=O)CCCCCCCCCCCCCCCCCCC(=O)O)C(=O)O)NC(=O)[C@H](CC(=O)O)NC(=O)[C@H](CC(C)C)NC(=O)[C@@H](NC(=O)[C@@H](NC(=O)[C@H](C)NC(=O)[C@H](CC(C)C)NC(=O)[C@H](CCC(=O)O)NC(=O)[C@H](CO)NC(=O)[C@@H](NC(=O)[C@H](Cc1ccccc1)NC(=O)[C@H](CO)NC(=O)CNC(=O)[C@H](CCC(=O)O)NC(=O)C(C)(C)NC(=O)[C@@H](N)Cc1c[nH]cn1)[C@@H](C)O)[C@@H](C)O)[C@@H](C)CC)C(=O)N[C@@H](C)C(=O)N[C@@H](Cc1c[nH]c2ccccc12)C(=O)N[C@@H](CC(C)C)C(=O)N[C@H](C(=O)N[C@@H](CCC(=O)O)C(=O)N[C@@H](Cc1c[nH]cn1)C(=O)N[C@@H](CCCCN)C(=O)N[C@H](C(=O)N[C@H](C(=O)N[C@@H](CC(=O)O)C(=O)O)[C@@H](C)O)[C@@H](C)CC)[C@@H](C)CC) [Compound 43] | 0.15 | 0.096
H-H[Aib]EGSFTSELATILEGK([AEEA-AEEA-γGlu-C20 diacid])AARDFIAWLIEHKITD-OH [Compound 44] | 0.14 | 0.063
H-H[Aib]EGSFTSELATILDEQAAK([AEEA-AEEA-γGlu-C20 diacid])DFIAWLIEHKITD-OH (SMILES CC[C@H](C)[C@H](NC(=O)[C@H](Cc1ccccc1)NC(=O)[C@H](CC(=O)O)NC(=O)[C@H](CCCCNC(=O)COCCOCCNC(=O)COCCOCCNC(=O)CC[C@H](NC(=O)CCCCCCCCCCCCCCCCCCC(=O)O)C(=O)O)NC(=O)[C@H](C)NC(=O)[C@H](C)NC(=O)[C@H](CCC(N)=O)NC(=O)[C@H](CCC(=O)O)NC(=O)[C@H](CC(=O)O)NC(=O)[C@H](CC(C)C)NC(=O)[C@@H](NC(=O)[C@@H](NC(=O)[C@H](C)NC(=O)[C@H](CC(C)C)NC(=O)[C@H](CCC(=O)O)NC(=O)[C@H](CO)NC(=O)[C@@H](NC(=O)[C@H](Cc1ccccc1)NC(=O)[C@H](CO)NC(=O)CNC(=O)[C@H](CCC(=O)O)NC(=O)C(C)(C)NC(=O)[C@@H](N)Cc1c[nH]cn1)[C@@H](C)O)[C@@H](C)O)[C@@H](C)CC)C(=O)N[C@@H](C)C(=O)N[C@@H](Cc1c[nH]c2ccccc12)C(=O)N[C@@H](CC(C)C)C(=O)N[C@H](C(=O)N[C@@H](CCC(=O)O)C(=O)N[C@@H](Cc1c[nH]cn1)C(=O)N[C@@H](CCCCN)C(=O)N[C@H](C(=O)N[C@H](C(=O)N[C@@H](CC(=O)O)C(=O)O)[C@@H](C)O)[C@@H](C)CC)[C@@H](C)CC) [Compound 45] | 0.36 | 1.4
H-H[Aib]EGTFTSELATILDEQAAK([AEEA-AEEA-γGlu-C20 diacid])DFIAWLIEHKITD-OH (SMILES CC[C@H](C)[C@H](NC(=O)[C@H](Cc1ccccc1)NC(=O)[C@H](CC(=O)O)NC(=O)[C@H](CCCCNC(=O)COCCOCCNC(=O)COCCOCCNC(=O)CC[C@H](NC(=O)CCCCCCCCCCCCCCCCCCC(=O)O)C(=O)O)NC(=O)[C@H](C)NC(=O)[C@H](C)NC(=O)[C@H](CCC(N)=O)NC(=O)[C@H](CCC(=O)O)NC(=O)[C@H](CC(=O)O)NC(=O)[C@H](CC(C)C)NC(=O)[C@@H](NC(=O)[C@@H](NC(=O)[C@H](C)NC(=O)[C@H](CC(C)C)NC(=O)[C@H](CCC(=O)O)NC(=O)[C@H](CO)NC(=O)[C@@H](NC(=O)[C@H](Cc1ccccc1)NC(=O)[C@@H](NC(=O)CNC(=O)[C@H](CCC(=O)O)NC(=O)C(C)(C)NC(=O)[C@@H](N)Cc1c[nH]cn1)[C@@H](C)O)[C@@H](C)O)[C@@H](C)O)[C@@H](C)CC)C(=O)N[C@@H](C)C(=O)N[C@@H](Cc1c[nH]c2ccccc12)C(=O)N[C@@H](CC(C)C)C(=O)N[C@H](C(=O)N[C@@H](CCC(=O)O)C(=O)N[C@@H](Cc1c[nH]cn1)C(=O)N[C@@H](CCCCN)C(=O)N[C@H](C(=O)N[C@H](C(=O)N[C@@H](CC(=O)O)C(=O)O)[C@@H](C)O)[C@@H](C)CC)[C@@H](C)CC) [Compound 46] | 0.38 | 0.26
